Data reported in PMC5645109 (PLoS ONE, 2017).

Biological target: T1, Torpedo nAChR (extract from the electric organ of Torpedo californica) (Tetronarce californica (Torpedo …, UniProt P02710;P02712;P02714;P02718))
T1 construct: acetylcholine receptor α-subunit, Torpedo californica; acetylcholine receptor β-subunit, Torpedo californica; acetylcholine receptor γ-subunit, Torpedo californica; acetylcholine receptor δ-subunit, Torpedo californica; also called torpedo AChR antigen; source: extract of the electric organ of Torpedo californica (gift, University of Nagasaki); copies: + + +
T1 sequence (P02718 whole entry, looked up, chain 1 of 4): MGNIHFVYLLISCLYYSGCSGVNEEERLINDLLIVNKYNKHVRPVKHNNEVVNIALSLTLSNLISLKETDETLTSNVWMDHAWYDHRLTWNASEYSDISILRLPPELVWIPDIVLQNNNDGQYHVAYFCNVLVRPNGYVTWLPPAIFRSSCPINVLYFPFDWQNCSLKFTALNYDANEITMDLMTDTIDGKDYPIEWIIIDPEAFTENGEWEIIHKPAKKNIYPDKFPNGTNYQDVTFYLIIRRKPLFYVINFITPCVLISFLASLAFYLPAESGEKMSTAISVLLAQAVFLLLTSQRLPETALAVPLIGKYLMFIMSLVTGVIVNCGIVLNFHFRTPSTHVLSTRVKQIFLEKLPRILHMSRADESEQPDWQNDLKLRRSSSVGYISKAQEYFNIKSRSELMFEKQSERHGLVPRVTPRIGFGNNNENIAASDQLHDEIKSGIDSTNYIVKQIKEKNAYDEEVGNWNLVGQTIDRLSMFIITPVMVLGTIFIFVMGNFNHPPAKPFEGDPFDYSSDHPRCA
T1 sequence (P02714 whole entry, looked up, chain 2 of 4): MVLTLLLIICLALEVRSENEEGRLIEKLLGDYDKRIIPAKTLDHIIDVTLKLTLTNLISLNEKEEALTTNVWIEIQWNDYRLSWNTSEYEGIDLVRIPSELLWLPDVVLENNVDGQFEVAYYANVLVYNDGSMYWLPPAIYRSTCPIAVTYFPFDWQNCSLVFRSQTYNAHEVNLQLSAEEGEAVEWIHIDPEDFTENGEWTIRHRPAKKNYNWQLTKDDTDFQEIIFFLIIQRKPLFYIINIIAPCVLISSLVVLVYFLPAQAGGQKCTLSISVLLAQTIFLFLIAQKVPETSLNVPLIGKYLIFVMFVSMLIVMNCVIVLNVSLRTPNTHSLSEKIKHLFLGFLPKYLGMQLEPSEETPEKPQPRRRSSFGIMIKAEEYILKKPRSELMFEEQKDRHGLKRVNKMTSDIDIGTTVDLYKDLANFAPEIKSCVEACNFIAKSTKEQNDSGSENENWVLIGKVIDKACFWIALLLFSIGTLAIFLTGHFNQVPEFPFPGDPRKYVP
T1 sequence (P02712 whole entry, looked up, chain 3 of 4): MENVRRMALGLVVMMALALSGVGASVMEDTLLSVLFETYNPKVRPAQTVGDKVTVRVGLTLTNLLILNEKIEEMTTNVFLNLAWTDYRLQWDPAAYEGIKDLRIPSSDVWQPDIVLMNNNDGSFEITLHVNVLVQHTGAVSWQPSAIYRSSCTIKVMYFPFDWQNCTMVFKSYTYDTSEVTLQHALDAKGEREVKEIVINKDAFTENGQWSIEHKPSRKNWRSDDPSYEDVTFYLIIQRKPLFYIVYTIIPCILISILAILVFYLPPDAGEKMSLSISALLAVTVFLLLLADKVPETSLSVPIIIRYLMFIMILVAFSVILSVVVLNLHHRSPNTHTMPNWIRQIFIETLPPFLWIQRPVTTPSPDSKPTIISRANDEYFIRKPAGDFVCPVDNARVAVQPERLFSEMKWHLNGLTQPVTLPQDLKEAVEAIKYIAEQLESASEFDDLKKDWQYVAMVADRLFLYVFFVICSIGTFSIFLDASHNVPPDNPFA
T1 sequence (P02710 whole entry, looked up, chain 4 of 4): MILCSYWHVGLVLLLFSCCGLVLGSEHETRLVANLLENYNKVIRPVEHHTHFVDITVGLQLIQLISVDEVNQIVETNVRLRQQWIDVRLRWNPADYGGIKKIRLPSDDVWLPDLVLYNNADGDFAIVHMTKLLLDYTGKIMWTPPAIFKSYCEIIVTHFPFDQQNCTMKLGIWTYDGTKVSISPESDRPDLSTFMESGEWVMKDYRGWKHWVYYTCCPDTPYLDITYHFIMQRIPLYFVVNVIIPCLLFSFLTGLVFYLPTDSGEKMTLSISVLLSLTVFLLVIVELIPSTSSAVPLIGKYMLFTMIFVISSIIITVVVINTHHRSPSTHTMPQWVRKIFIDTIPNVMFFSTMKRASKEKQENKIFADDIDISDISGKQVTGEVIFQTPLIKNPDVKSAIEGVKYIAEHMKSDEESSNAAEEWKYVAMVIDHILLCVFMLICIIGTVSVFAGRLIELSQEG
Assay: radio immunoprecipitation assay; extract of the electric organ of Torpedo californica or extract of rat sciatic nerve as antigen; relative binding affinity; method of ref. 54
Details: one partner purified

B1: rat mAb35, anti-nAChR main immunogenic region antibody (rat IgG1) (antibody, V domains shown)
VH: EVQLQESGPGLVQPSETLSLTCTVSGFSLTSYSVSWLRQPSGKGPEWMGRMWDDGGTVYNSGLKSRLSISRDTSKNQVFLKMNSLQTDDTGTYYCTRDERIRAINWFAYWGQGTLVTVSS
VL: DIVITQSPSLLSASVGDRVTLTCKGSQNIDNYLAWYQQKLGEAPKLLIYKTNSLQTGIPSRFSGSGSGTDYTLTISSLHSEDLATYYCYQYINGYTFGTGTKLELK
notes: heavy chain of rat mAb35 (rat IgG1); light chain of rat mAb35; the hybridoma clone is named for the cDNA; also called mAb35 (rat); source: rat Hybridoma
binding result: binds
